# Columns and labels:
# [1] = system: T1, SigL (sigma-54) (Clostridium beijerinckii), ORF:07123114; assay: EMSA; conditions: Not stated in the material; EMSA as in Zhang et al., 2014, with Cy5-labelled DNA
# T1 sequence: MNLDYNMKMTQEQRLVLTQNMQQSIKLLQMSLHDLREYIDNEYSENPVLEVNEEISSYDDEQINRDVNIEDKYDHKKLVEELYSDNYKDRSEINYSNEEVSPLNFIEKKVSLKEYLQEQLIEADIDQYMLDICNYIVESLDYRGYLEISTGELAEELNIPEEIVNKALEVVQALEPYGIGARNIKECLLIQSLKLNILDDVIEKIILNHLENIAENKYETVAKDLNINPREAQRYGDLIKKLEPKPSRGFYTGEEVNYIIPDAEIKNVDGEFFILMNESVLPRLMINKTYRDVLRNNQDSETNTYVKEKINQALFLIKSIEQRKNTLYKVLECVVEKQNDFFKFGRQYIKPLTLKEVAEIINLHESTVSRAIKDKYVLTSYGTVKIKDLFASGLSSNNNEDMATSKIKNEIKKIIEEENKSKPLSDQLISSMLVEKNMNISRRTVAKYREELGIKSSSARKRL
# [2] = system: T2, AdhR-DBD (Clostridium beijerinckii), ORF:f910ab61; assay: EMSA; conditions: Not stated in the material; EMSA as in Zhang et al., 2014, with Cy5-labelled DNA
# T2 sequence: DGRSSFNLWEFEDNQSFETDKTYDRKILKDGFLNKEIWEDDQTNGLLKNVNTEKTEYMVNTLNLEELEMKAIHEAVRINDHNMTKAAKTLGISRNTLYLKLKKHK
Sequence,binding [1],binding [2]
AGCCAGTGGCGATAAGAAAGTAAAACACATAATAATTGTTTTTAAAGTGTTTTATTATCCTCAAAAGTGCATAAATGCTACGATTGAACTCATGATCACATTTTTATTTCTGCATCAAAAACTTGGCACGGTTATTGCTTTATATATAAGCATAAGAGAAACAAAACAAAATTATATAAAGTATAAAAACAAAAAGTATTAAAAGGAGAGAGCGAACTTATCGCCACTGGCT (double strand) [adhA1 promoter -24/-12 fragment],binds,
AGCCAGTGGCGATAAGTTAAATAAATAAACTATCATGAATCAAAAATTAACAATGTCTAAACTTAAAAAATGCAAAAAAATATATGTCCTAAAAGCATACAGTGTAATAAAACTGAACATTTTATTTATAAATTGTATTTTTTTAATACAGTAAATTTGCATTAGAAAAACTATATTGTTAATAATTAGATTATAAAATTTCAATAAATGGGGAGACTTATCGCCACTGGCT (double strand) [adhA2 promoter UAS fragment],,binds
AGCCAGTGGCGATAAGAACAAAAAACTCGTAATTCCTCAGAAATATTATATTTAAAGGTTTTAAATTAAGTTATTAAATATATATATAATAAGTTATACATAAATTGATTGTTAAGCATATACTCATTTATATAAATAATTTTTAACAAAGATATGTCCTAAAATAATACAGTATAAATTTAATACAGCGTAATATTTTAGGACATGCTTTATAATCTTATCGCCACTGGCT (double strand) [adhA1 promoter UAS fragment],,binds
AGCCAGTGGCGATAAGTTTTAACCTCTCCTTGGATATTTTTTTTACTAGCATTCATCTATTACACTATTATATAAAGCAAGTTTTATACCAATATTATATTTATACATAAATAAATATAAATCATCTCATAATCGCACAATTCATGAATCGAAGTGTGCAACTTTAAAAAAATAGTGTGTAATTTAACTTACACACTGCCTTATCGCCACTGGCT (double strand) [adhA2 promoter -24/-12 fragment],binds,

# From publication PMC7017808
